{
  "source": "IntAct's records for PubMed 20148946",
  "biological_target": "T1, unkl_human UNKL (UniProt Q9H9P5)",
  "T1 sequence": "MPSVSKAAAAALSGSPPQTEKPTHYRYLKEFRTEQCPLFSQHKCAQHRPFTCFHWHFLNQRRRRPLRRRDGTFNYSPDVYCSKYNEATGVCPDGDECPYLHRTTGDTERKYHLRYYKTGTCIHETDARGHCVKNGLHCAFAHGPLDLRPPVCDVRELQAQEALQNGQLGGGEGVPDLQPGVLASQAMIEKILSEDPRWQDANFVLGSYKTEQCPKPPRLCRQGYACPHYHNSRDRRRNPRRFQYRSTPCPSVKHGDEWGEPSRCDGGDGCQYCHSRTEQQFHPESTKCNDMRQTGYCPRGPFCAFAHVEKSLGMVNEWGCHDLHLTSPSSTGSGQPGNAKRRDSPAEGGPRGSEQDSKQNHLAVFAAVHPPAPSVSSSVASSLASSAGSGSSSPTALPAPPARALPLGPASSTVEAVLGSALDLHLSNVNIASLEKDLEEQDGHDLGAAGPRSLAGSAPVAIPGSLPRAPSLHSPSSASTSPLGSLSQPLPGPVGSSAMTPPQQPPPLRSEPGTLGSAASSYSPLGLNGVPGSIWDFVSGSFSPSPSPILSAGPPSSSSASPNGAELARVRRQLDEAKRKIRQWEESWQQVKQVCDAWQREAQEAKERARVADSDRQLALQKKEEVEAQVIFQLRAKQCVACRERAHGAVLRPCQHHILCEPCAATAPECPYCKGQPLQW",
  "data": [
    {"substance": "Ras-related C3 botulinum toxin substrate 1 (Homo sapiens) (from UniProt P63000) Q61L", "values": [
      {"measurement": "effect of a mutation on the interaction", "result": "increasing interaction"}
    ]}
  ]
}
